Data: patent publication US20190191748A1

These substances were tested against moAb G12 conjugated to HRP (peroxidase) (assay: competitive ELISA, gliadin-coated plate, G12-HRP; reference OM719).

Substance | cross-reactivity (CR) = (IC50 of OM719 / IC50 of the variety) x 100 [%]
avenins (prolamins) extracted from oat variety OC723 | 12
avenins (prolamins) extracted from oat variety OH727 | 25

Second part, the substance after the results:

cross-reactivity (CR) = (IC50 of OM719 / IC50 of the variety) x 100 [%] | Substance
75 | avenins (prolamins) extracted from oat variety OA729
60 | avenins (prolamins) extracted from oat variety OE717
24 | avenins (prolamins) extracted from oat variety OL715
